Data from patent US20050215478A1, “Amino acid sequences capable of facilitating penetration across a biological barrier” (priority 2002, published 2005).
Where “and” joins values, the source holds several entries; their conditions need not be identical. Equal entries are not always repeated.

Tests used:
[1] = Relative potency of penetrating peptides as tested in mice (Example 3); format: in vivo; details: IBW-002 = 100
Excerpt: Relative Potency of Penetrating Peptides as Tested in Mice.

[2] = Formulation development: recovery of ^125I-IBW-002 after intestine loop injection, urine included (Example 2); format: in vivo, mouse; details: intestinal loop; for recovered cpm/mouse: blood 60′, organs and urine; for blood 15′, total cpm in the blood / blood 30′, total cpm in the blood / blood 60′, total cpm in the blood / blood 5′, total cpm in the blood / blood 10′, total cpm in the blood / blood 20′, total cpm in the blood: calculated from 50 μl sample assuming 2 ml blood
Protocol: The mice were anesthetized by i.p. injection of 0.05 ml of a mixture of 0.15 ml xylazine+0.85 ml of ketamin. A 2 cm long incision was made along the center of the abdomen, through the skin and abdominal wall. An intestine loop was gently pulled out through the incision and placed on wet gauze beside the animal. The loop remained intact through the entire procedure and was kept wet during the whole time. The tested compound was injected into the loop, 0.2 ml/ mouse, containing around 200,000 cpm, using a 26G needle. […] The animals were subsequently sacrificed. The following organs were removed: epididymal fat, kidneys, liver, lungs and brain. Radioactivity in each organ and in blood samples was counted. A 5 μl sample of the injected solution was counted to determine the total injected cpm per mouse.
To reach an improved formulation, a number of compounds were tested in experiments similar to that described in Example 1, with the following change: urine was collected and the measured radioactivity was added to that of the recovered tissues. […]
The total radioactive labeling injected per mouse was 195,900 cpm. Total cpm in the blood was calculated based on the 50 μl blood sample drawn out at different time points post injection, in the assumption that total blood volume of each mouse is 2 ml.
The total radioactive labeling injected per mouse was 143,000 cpm. Total cpm in the blood was calculated based on the 50 μl blood sample drawn out at different time points post injection, in the assumption that total blood volume of each mouse is 2 ml.

[3] = Table 5 formulation (PE 6,200), 125,320 cpm injected per mouse, individual mice, listed as 125I-IBW-002
[4] = Table 5 formulation (PE 6,200), 125,320 cpm injected per mouse, mean of 2 mice
[5] = Table 8 formulation (PE 6,200 + Taurodeoxycholic acid), 195,900 cpm injected per mouse, individual mice, listed as 125I-IBW-002
[6] = Table 8 formulation (PE 6,200 + Taurodeoxycholic acid), 195,900 cpm injected per mouse, mean of 4 mice
[7] = Table 11 formulation (Pluronic F-68 + Taurodeoxycholic acid), 143,000 cpm injected per mouse, individual mice, listed as 125I-IBW-002
[8] = Table 11 formulation (Pluronic F-68 + Taurodeoxycholic acid), 143,000 cpm injected per mouse, mean of 4 mice

Ac-NYYDITLALAGICQSARLVQQLAGGGKGGK-NH2 (Ac-NYYDITLALAGICQSARLVQQLAGGGKGGK-NH2; also: 125I label) [IBW-002, ^125I-labeled using the Bolton Hunter Reagent for in vivo tests]
Relative potency (%) [1]: 100%
recovered cpm/mouse [2, 3]: 35,759 cpm and 40,067 cpm
recovered cpm/mouse [2, 4]: 37,913 cpm
blood 15′, total cpm in the blood [2, 3]: 19,920 cpm and 19,560 cpm
blood 30′, total cpm in the blood [2, 3]: 18,800 cpm and 15,880 cpm
blood 60′, total cpm in the blood [2, 3]: 14,560 cpm and 10,960 cpm
blood 15′, total cpm in the blood [2, 4]: 19,740 cpm
blood 30′, total cpm in the blood [2, 4]: 17,340 cpm
blood 60′, total cpm in the blood [2, 4]: 12,760 cpm
blood/injected cpm (%), 15′ [2, 3]: 15.90% and 15.61%
blood/injected cpm (%), 30′ [2, 3]: 15.00% and 12.67%
blood/injected cpm (%), 60′ [2, 3]: 11.62% and 8.75%
brain, cpm recovered [2, 3]: 95 cpm and 110 cpm
epididimal fat, cpm recovered [2, 3]: 321 cpm and 288 cpm
kidney, cpm recovered [2, 3]: 2,564 cpm and 3,799 cpm
liver, cpm recovered [2, 3]: 2,994 cpm and 2,786 cpm
lungs, cpm recovered [2, 3]: 476 cpm and 377 cpm
recovered cpm/injected cpm (%) [2, 3]: 28.53% and 31.97%
urine, cpm recovered [2, 3]: 14,749 cpm and 21,747 cpm
blood/injected cpm (%), 15′ [2, 4]: 15.75%
blood/injected cpm (%), 30′ [2, 4]: 13.84%
blood/injected cpm (%), 60′ [2, 4]: 10.18%
brain, cpm recovered [2, 4]: 103 cpm
epididimal fat, cpm recovered [2, 4]: 305 cpm
kidney, cpm recovered [2, 4]: 3,182 cpm
liver, cpm recovered [2, 4]: 2,890 cpm
lungs, cpm recovered [2, 4]: 427 cpm
recovered cpm/injected cpm (%) [2, 4]: 30.25%
urine, cpm recovered [2, 4]: 18,248 cpm
recovered cpm/mouse [2, 5]: 93,914 cpm and 68,380 cpm and 89,969 cpm and 90,520 cpm
recovered cpm/mouse [2, 6]: 85,446 cpm
blood 15′, total cpm in the blood [2, 5]: 40,600 cpm and 39,440 cpm and 51,920 cpm and 36,200 cpm
blood 30′, total cpm in the blood [2, 5]: 37,440 cpm and 31,720 cpm and 48,440 cpm and 34,720 cpm
blood 60′, total cpm in the blood [2, 5]: 33,880 cpm and 23,080 cpm and 40,840 cpm and 30,200 cpm
blood 15′, total cpm in the blood [2, 6]: 42,040 cpm
blood 30′, total cpm in the blood [2, 6]: 38,080 cpm
blood 60′, total cpm in the blood [2, 6]: 32,000 cpm
blood/injected cpm (%), 15′ [2, 5]: 20.72% and 20.13% and 26.50% and 18.48%
blood/injected cpm (%), 30′ [2, 5]: 19.11% and 16.19% and 24.73% and 17.72%
blood/injected cpm (%), 60′ [2, 5]: 17.29% and 11.78% and 20.85% and 15.42%
brain, cpm recovered [2, 5]: 206 cpm and 176 cpm and 284 cpm and 173 cpm
epididimal fat, cpm recovered [2, 5]: 1,081 cpm and 805 cpm and 903 cpm and 846 cpm
kidney, cpm recovered [2, 5]: 9,513 cpm and 7,878 cpm and 10,661 cpm and 8,929 cpm
liver, cpm recovered [2, 5]: 8,194 cpm and 5,154 cpm and 9,615 cpm and 8,708 cpm
lungs, cpm recovered [2, 5]: 1,048 cpm and 636 cpm and 1,221 cpm and 1,303 cpm
recovered cpm/injected cpm (%) [2, 5]: 47.94% and 34.91% and 45.42% and 46.21%
urine, cpm recovered [2, 5]: 39,992 cpm and 30,651 cpm and 25,445 cpm and 40,361 cpm
blood/injected cpm (%), 15′ [2, 6]: 21.46%
blood/injected cpm (%), 30′ [2, 6]: 19.44%
blood/injected cpm (%), 60′ [2, 6]: 16.33%
brain, cpm recovered [2, 6]: 210 cpm
epididimal fat, cpm recovered [2, 6]: 909 cpm
kidney, cpm recovered [2, 6]: 9,245 cpm
liver, cpm recovered [2, 6]: 7,918 cpm
lungs, cpm recovered [2, 6]: 1,052 cpm
recovered cpm/injected cpm (%) [2, 6]: 43.62%
urine, cpm recovered [2, 6]: 34,112 cpm
recovered cpm/mouse [2, 7]: 78,079 cpm and 67,291 cpm and 64,828 cpm and 79,362 cpm
recovered cpm/mouse [2, 8]: 72,390 cpm
blood 5′, total cpm in the blood [2, 7]: 29,400 cpm and 29,120 cpm and 34,240 cpm and 32,920 cpm
blood 10′, total cpm in the blood [2, 7]: 26,680 cpm and 32,320 cpm and 28,200 cpm and 27,760 cpm
blood 20′, total cpm in the blood [2, 7]: 20,280 cpm and 30,960 cpm and 27,240 cpm and 21,800 cpm
blood 60′, total cpm in the blood [2, 7]: 11,880 cpm and 22,840 cpm and 16,280 cpm and 14,440 cpm
blood 5′, total cpm in the blood [2, 8]: 31,420 cpm
blood 10′, total cpm in the blood [2, 8]: 28,740 cpm
blood 20′, total cpm in the blood [2, 8]: 25,070 cpm
blood 60′, total cpm in the blood [2, 8]: 16,360 cpm
blood/injected cpm (%), 5′ [2, 7]: 20.56% and 20.36% and 23.94% and 23.02%
blood/injected cpm (%), 10′ [2, 7]: 18.66% and 22.60% and 19.72% and 19.41%
blood/injected cpm (%), 20′ [2, 7]: 14.18% and 21.65% and 19.05% and 15.24%
blood/injected cpm (%), 60′ [2, 7]: 8.31% and 15.97% and 11.38% and 10.10%
brain, cpm recovered [2, 7]: 76 cpm and 106 cpm and 94 cpm and 74 cpm
epididimal fat, cpm recovered [2, 7]: 375 cpm and 591 cpm and 462 cpm and 465 cpm
kidney, cpm recovered [2, 7]: 2,397 cpm and 4,407 cpm and 5,018 cpm and 5,772 cpm
liver, cpm recovered [2, 7]: 3,516 cpm and 6,546 cpm and 6,561 cpm and 4,807 cpm
lungs, cpm recovered [2, 7]: 393 cpm and 643 cpm and 582 cpm and 533 cpm
recovered cpm/injected cpm (%) [2, 7]: 54.60% and 47.06% and 45.33% and 55.50%
urine, cpm recovered [2, 7]: 59,442 cpm and 32,158 cpm and 35,831 cpm and 53,271 cpm
blood/injected cpm (%), 5′ [2, 8]: 21.97%
blood/injected cpm (%), 10′ [2, 8]: 20.10%
blood/injected cpm (%), 20′ [2, 8]: 17.53%
blood/injected cpm (%), 60′ [2, 8]: 11.44%
brain, cpm recovered [2, 8]: 88 cpm
epididimal fat, cpm recovered [2, 8]: 473 cpm
kidney, cpm recovered [2, 8]: 4,399 cpm
liver, cpm recovered [2, 8]: 5,358 cpm
lungs, cpm recovered [2, 8]: 538 cpm
recovered cpm/injected cpm (%) [2, 8]: 50.62%
urine, cpm recovered [2, 8]: 45,176 cpm
